{"source": "patent US20140275493A1", "about": "(Bayer, published 2014)", "target": "T1, Human TFPI (tissue factor pathway inhibitor) (human, UniProt P10646 29-304, limits assumed)", "T1 construct": "Coated on Maxisorb plates for the ELISA", "T1 sequence (looked up)": "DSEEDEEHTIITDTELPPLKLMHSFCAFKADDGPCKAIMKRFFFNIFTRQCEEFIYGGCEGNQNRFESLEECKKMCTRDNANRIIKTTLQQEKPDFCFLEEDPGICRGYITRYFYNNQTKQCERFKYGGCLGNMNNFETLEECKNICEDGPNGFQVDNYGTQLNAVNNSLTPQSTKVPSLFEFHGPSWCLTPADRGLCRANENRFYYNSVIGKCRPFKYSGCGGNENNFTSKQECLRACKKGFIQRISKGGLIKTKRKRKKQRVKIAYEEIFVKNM", "assay": "pH 6.0 TFPI dissociation ELISA, ratio of signals", "protocol": "Human TFPI, 1 μg/ml, was used to coat Maxisorb™ microtiter plates. Expression media, 100 μl, from each member of the His scan library, was added to two wells on the plate, in a pair wise fashion. The plate was incubated on a shaker at room temperature for 1 hr. The plate was washed 3× with PBST. PBS (pH 7.0) was added to one well of the pair, 100 mM pH6.0 Citrate buffer was added to the second well of the same pair. The plate was incubated at 37° C. with shaking for one hr. The plate was washed 3× with PBST and developed using amplex red. A pH 7.0/pH 6.0 ratio was established to rank the sensitive muteins. The ratio for wild type 2A8-g200 Fab was 1.0."}
{"binder": "2A8-g200 Fab VL-Y31H (Fab, V domains shown) VH: EVQLVESGGGLVQPGGSLRLSCAASGFTFSSYGMDWVRQAPGKGLEWVSSIRGSRGSTYYADSVKGRFTISRDNSKNTLYLQMNSLRAEDTAVYYCARLYRYWFDYWGQGTLVTVSS VL: SYELTQPPSVSVSPGQTARITCSGDNLPKYHAHWYQQKPGQAPVVVIFYDVNRPSGIPERFSGSNSGNTATLTISGTQAMDEADYYCQAWWSSTPVFGGGTKLTVLG", "values": [{"measurement": "Ratio pH 7.0/pH 6.0", "value": 6.64}]}
